Measured values reported in PMC12623541.

Biological target: androgen receptor (AR) (human (endogenous in LNCaP and C4-2)) (UniProt P10275)
Assay: co-IP; lysates (RIPA buffer) of LNCaP and C4-2 cells transfected with siNC or siKMT2D; immunoprecipitation with primary antibody and Protein A/G agarose at 4 °C, western blot for AR and E3 ubiquitin ligases; which protein was precipitated is not stated for this panel

Chain of UniProt P10275 (P10275 whole entry): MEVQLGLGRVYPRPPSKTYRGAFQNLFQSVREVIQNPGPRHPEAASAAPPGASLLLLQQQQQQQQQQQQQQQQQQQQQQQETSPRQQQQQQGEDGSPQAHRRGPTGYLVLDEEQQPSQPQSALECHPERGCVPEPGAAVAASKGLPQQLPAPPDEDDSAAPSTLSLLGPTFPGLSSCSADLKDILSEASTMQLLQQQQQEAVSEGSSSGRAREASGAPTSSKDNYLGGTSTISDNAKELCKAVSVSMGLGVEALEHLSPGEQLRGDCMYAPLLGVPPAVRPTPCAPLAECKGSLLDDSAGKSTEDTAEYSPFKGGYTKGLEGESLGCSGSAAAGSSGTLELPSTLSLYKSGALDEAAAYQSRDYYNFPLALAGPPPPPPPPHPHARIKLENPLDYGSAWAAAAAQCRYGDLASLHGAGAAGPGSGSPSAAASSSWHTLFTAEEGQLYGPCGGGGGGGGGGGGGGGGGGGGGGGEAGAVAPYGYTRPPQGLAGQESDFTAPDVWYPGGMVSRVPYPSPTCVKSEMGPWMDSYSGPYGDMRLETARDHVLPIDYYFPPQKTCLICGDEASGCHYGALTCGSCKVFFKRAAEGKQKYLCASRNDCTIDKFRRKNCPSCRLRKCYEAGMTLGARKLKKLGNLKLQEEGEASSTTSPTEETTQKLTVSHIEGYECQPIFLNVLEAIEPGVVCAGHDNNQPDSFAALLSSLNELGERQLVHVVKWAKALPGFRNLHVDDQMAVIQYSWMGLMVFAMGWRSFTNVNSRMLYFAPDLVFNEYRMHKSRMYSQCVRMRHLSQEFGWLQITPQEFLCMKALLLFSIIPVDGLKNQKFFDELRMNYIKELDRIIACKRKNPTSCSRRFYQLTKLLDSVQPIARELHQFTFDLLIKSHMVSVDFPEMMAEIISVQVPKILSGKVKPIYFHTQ

“Speckle Type BTB/POZ protein (SPOP) (from UniProt O43791 1-374) (natural protein)” gave a fold change of SPOP bound to AR after KMT2D knockdown against control (C4-2 cells) of 1.57 fold and a fold change of SPOP bound to AR after KMT2D knockdown against control (LNCaP cells) of 1.41 fold.
